Experimental data taken from PMC10565793, “Biochemical and X-ray analyses of the players involved in the faRel2/aTfaRel2 toxin–antitoxin operon” (Acta Crystallographica. Section F, Structural Biology …, 2023).

Biological target: T1, FaRel2^Y128F (catalytically impaired toxin FaRel2 from Coprobacillus sp. D7) (Coprobacillus sp. D7, Y128F (stands in the printed letters))
T1 construct: The His6-SUMO tag was removed with UlpI, and complete removal was confirmed by anti-His Western blot; also called tagless FaRel2^Y128F; His6-SUMO-FaRel2^Y128F (before cleavage); source: E. coli BL21(DE3), purified (Ni-NTA, SEC, UlpI cleavage, TALON, SEC); not shown: His6, N-terminal, cleaved; SUMO, N-terminal, cleaved
Test: SEC; analytical SEC on a Superdex 75 Increase column in 25 mM HEPES, 300 mM NaCl, 1 mM TCEP, 2 mM MgCl2; proteins run alone, or FaRel2^Y128F and ATfaRel2 mixed in a 1:1.2 molar ratio; molecular weights estimated from elution volume
Settings: both partners purified

B1: 6×His-TEV-ATfaRel2 (antitoxin ATfaRel2 from Coprobacillus sp. D7) (natural protein)
chain: AMCYIIAKRFKKSGCVALKAKRGKELADFATDLQKKLGYDIQIVAITRPTAYGEYEPYKFVNSFEEFSIEASRL
notes: The tag is not reported as removed; also called His6-TEV-ATfaRel2; source: E. coli BL21 (DE3), purified (Ni-NTA, SEC)
  stoichiometry N: 1 ATfaRel2 per FaRel2^Y128F (2:2 heterotetramer)
